# Literature values as cited in paper PMC2775957.
# Assays:
# [1] = biological target: CMG2 (Homo sapiens) (UniProt P58335)
# [2] = biological target: TEM8 (Homo sapiens) (UniProt Q9H6X2)
substance,measurement,setting,value
Protective antigen (from UniProt P13423),Kd,[1],1 nM
same,Kd,[2],10 nM
